The experiment addresses Manduca sexta V-ATPase subunit c (c ring) (Manduca sexta (endogenous in midgut)). The experiment can be described thus: cryo-EM structure; M. sexta V-ATPase holoenzyme purified from tissue, in C12E10; 9.4 Å reconstruction (gold standard FSC 0.143); homology models of the subunits flexibly fitted by MDFF; side chains not resolved.

For the substance “Manduca sexta V-ATPase subunit c (c ring) (natural protein)”, the stoichiometry N – broadly, a count of units in the complex or per binding partner – came to 8.

For the origin of these results see publication PMC4353692.
